The target in this experiment is 17b (CD4-induced human monoclonal antibody). Nature of the experiment: flow cytometry of transfected 293T cells: staining with 10 μg/ml 17b with or without sCD4-183, detection with APC anti-human IgG F(ab')2, arithmetic mean APC fluorescence of live (propidium iodide negative) single cells; 'All titrations …. The settings on record: sCD4-183 at 0, 0.078125, 0.3125, 1.25, 5, 20, 80 μM (row value in value_extra.sCD4_183_uM), 20 min staining at room temperature, CAUTION: 17b staining of cell-surface trimers with sCD4, mostly reports trimer opening, normalized per Env, one titration each. Higher = more 17b staining of cell-surface Env. 17b's epitope is exposed, numbering: unknown, sequence starts at 1. (A flow cytometer gives signals particle by particle.)

Where [1] appears, read: AUC over sCD4-183 0-80 μM, parent: 0.907, scale: area under the normalized MFI curve, log10 x-axis.
Where [2] appears, read: sCD4-183 0 μM, parent: 0.0187, scale: normalized MFI.
Where [3] appears, read: sCD4-183 0.078125 μM, parent: 0.0465, scale: normalized MFI.
Where [4] appears, read: sCD4-183 0.3125 μM, parent: 0.0578, scale: normalized MFI.
Setting [5] is: sCD4-183 1.25 μM, parent: 0.0973, scale: normalized MFI.
The mark [6] stands for this setting: sCD4-183 5 μM, parent: 0.198, scale: normalized MFI.
The mark [7] stands for this setting: sCD4-183 20 μM, parent: 0.585, scale: normalized MFI.
The mark [8] stands for this setting: sCD4-183 80 μM, parent: 1, scale: normalized MFI.

Regarding “HIV-1 JR-CSF envelope glycoprotein gp160 (Env), P20871 JR-CSF_T202A”, the screen value under setting [1] worked out at 2.71; the screen value under setting [2] is 0.144; the screen value under setting [3] is 0.403; the screen value under setting [4] came out at 0.617; the screen value under setting [5] is 0.843; the screen value under setting [6] is 1. The screen value by setting is: under setting [7], 0.973; under setting [8], 0.97.

“HIV-1 JR-CSF envelope glycoprotein gp160 (Env), P20871 JR-CSF_T303A”: the screen value runs as follows: under setting [1], 2.51; under setting [2], 0.128; under setting [3], 0.303; under setting [4], 0.493; under setting [5], 0.793; under setting [6], 0.976. Also, the screen value runs as follows: under setting [7], 1; under setting [8], 0.93.

Take “HIV-1 JR-CSF envelope glycoprotein gp160 (Env), P20871 JR-CSF_T303I”: the screen value reads like this: under setting [1], 1.66; under setting [2], 0.0358; under setting [3], 0.0925; under setting [4], 0.153; under setting [5], 0.308; under setting [6], 0.682. In addition, the screen value is, setting by setting: under setting [7], 0.979; under setting [8], 1.

Regarding “HIV-1 JR-CSF envelope glycoprotein gp160 (Env), P20871 JR-CSF_T320A”, the screen value reads like this: under setting [1], 2.47; under setting [2], 0.13; under setting [3], 0.297; under setting [4], 0.477; under setting [5], 0.754; under setting [6], 0.942. Moreover, the screen value reads like this: under setting [7], 1; under setting [8], 0.974.

With “HIV-1 JR-CSF envelope glycoprotein gp160 (Env), P20871 JR-CSF_V127A”, the screen value was 2.51 under setting [1]; 0.217 under setting [2]; 0.347 under setting [3]; 0.491 under setting [4]; 0.715 under setting [5]; 0.915 under setting [6]. Moreover, the screen value is 1 under setting [7] and 0.951 under setting [8].

As to “HIV-1 JR-CSF envelope glycoprotein gp160 (Env), P20871 JR-CSF_W112A”, the screen value under setting [1] is 1.64; the screen value under setting [2] was determined as 0.00342; the screen value under setting [3] turned out to be 0.153; the screen value under setting [4] is 0.255; the screen value under setting [5] was 0.378; the screen value under setting [6] amounted to 0.566. In addition, the screen value runs as follows: under setting [7], 0.852; under setting [8], 1.

With “HIV-1 JR-CSF envelope glycoprotein gp160 (Env), P20871 JR-CSF_Y173A”, the screen value is, setting by setting: under setting [1], 1.72; under setting [2], 0.137; under setting [3], 0.199; under setting [4], 0.265; under setting [5], 0.357; under setting [6], 0.533. Besides, the screen value runs as follows: under setting [7], 0.862; under setting [8], 1.

Turning to “HIV-1 JR-CSF envelope glycoprotein gp160 (Env), P20871 JR-CSF_Y177A”, the screen value runs as follows: under setting [1], 2.87; under setting [2], 0.317; under setting [3], 0.576; under setting [4], 0.719; under setting [5], 0.858; under setting [6], 0.82. Moreover, the screen value amounted to 0.942 under setting [7] and 1 under setting [8].

On to “HIV-1 JR-CSF envelope glycoprotein gp160 (Env), P20871 JR-CSF_Y318A”, for which the screen value is 2.53 under setting [1]; 0.234 under setting [2]; 0.39 under setting [3]; 0.538 under setting [4]; 0.703 under setting [5]; 0.901 under setting [6]. The screen value was determined as 0.923 under setting [7] and 1 under setting [8].

Regarding “HIV-1 JR-CSF envelope glycoprotein gp160 (Env), P20871 JR-CSF_Y384A”, the screen value reads like this: under setting [2], 0.03; under setting [3], 0.141; under setting [4], 0.264; under setting [5], 0.357; under setting [6], 0.491; under setting [7], 0.712. Also, the screen value under setting [8] amounted to 1.

These data come from PMC11774494.
